Where no end group is shown, it is not given here. The star is where a group is joined. FITC = O=C1OC2(c3ccc(O)cc3Oc3cc(O)ccc32)c2ccc(NC(=S)*)cc21

In article PMC10499821 (Nature Communications, 2023) one finds binding result and Kd data, which are given here for eight molecules.

The target of experiment [1] is Nsp9 (SARS-CoV-2, UniProt P0DTD1). Briefly: fluorescence polarisation. Particulars: both partners purified.
In experiment [2] the target is Nsp16 (SARS-CoV-2, UniProt P0DTD1 6799-7096). The experiment can be described thus: fluorescence polarisation. Particulars: both partners purified. (In general: Polarisation of emitted light reports the rotation of a fluorescent probe.)

MNIQEQGFPLDLGAS (also called Axin-1 peptide) [AXIN1_(1–15)]: the binding result in experiment [1] was “binds”.

B1: DYRK1B_(395–410) (peptide)
peptide: PGHSPADYLRFQDLVL
notes: also called DYRK1B peptide; DYRK1B_(394–409)
Turning to B1, in experiment [2], the Kd was found to be 56 µM. Turning to FQGAWLGCPEPWEPLL (peptide, UniProt Q99466 1605-1620, looked up, also called NOTCH4 peptide) [NOTCH4_(1605–1620)], the Kd in experiment [1] was roughly 130 µM. Turning to {FITC}-AEGIDIGEMPSYDLVL [FITC-NKRF_(8–23)], the binding result in experiment [1] is recorded as “binds”. On the same count and under the same terms, in the case of AEGIDIGEMPSYDLVL (also called NKRF peptide) [NKRF_(8–23)] it was “binds”; in that of PAHPDGFALGRAPLA (also called LMTK3 peptide) [LMTK3_(22–36)], “binds”. Molecule EDPLDSYLNFQALISP (also called FLJ43738 peptide) [FLJ43738_(76–91)] gave a Kd in experiment [2] of 62 µM. As for NQDMSAWFNLFADLDP (also called ICA1L peptide) [ICA1L_(450–465)], binding in experiment [2] was put at a Kd of 30 µM.

In general, Kd refers to the concentration at which binding is half-saturated.
